Test results published in patent US10398755B2, “Clusterin pharmaceuticals and treatment methods using the same” (UNIVERSITY OF SOUTHERN CALIFORNIA, priority 2009, dated 2019).

What was measured:
MMP-2 = target: T1, MMP-2 (Mus musculus, UniProt P33434); test: In vitro protein binding assay (CLU-His pull-down, gelatin zymography), MMP-2; settings: 150 mM NaCl binding buffer
T1 construct: purchased R&D Systems
Method: A mixture of MMP-2, MMP-9, and C-terminal truncated MMP-9 (9-ΔC) was incubated with His-tagged CLU, used in a pull-down assay and resolved on a gelatin zymography gel. The input and bound samples were loaded in a series of dilution.
Next, we tested the interaction of secreted CLU using mouse recombinant proteins. We used purified recombinant proteins of MMP-2, MMP-9, and CLU that were secreted from a mouse myeloma cell line (NSO). All of the proteins were purchased from R&D Systems. A mixture of MMP-2, MMP-9, and C-terminal truncated MMP-9 (9-ΔC) was incubated with His-tagged CLU, and subjected to the pull-down assay, using 150 mM NaCl-containing binding buffer and anti-His tag antibody resins. Portions of the input samples (Input) and proteins bound to the antibody (Bound) were resolved on the gelatin zymography gel.
The recombinant CLU contains a (His)6-Tag at the C-terminus of the protein, which was used for pull-down experiments with anti-His tag antibody beads. It was previously reported that CLU also binds to MT6-MMP/mmp-25 and that the hemopexin domain in the MMP C-terminal region is required for their interaction (Matsuda et al., 2003). To use as an internal control for the binding experiment, we removed part of MMP-9 (MMP-9-ΔC) by promoting self-processing by APMA (4-aminophenylmercuric acetate) treatment. […]

GST-MMP-9 = test: GST pull-down assay with GST-tagged MMP-9; type: binding, mouse; settings: presence or absence of bacterial lysate
Method: (A) GST-tagged MMP-9 was purified from the bacterial cells transformed by the expression vector, and immobilized to the anti-GST-beads to prepare MMP-9-GST beads. Purified CLU-HA was incubated with MMP-9-GST beads (M-GST) or GST-beads (GST) in the presence (+Lysate) or absence (−Lysate) of bacterial lysate, followed by washing the beads with binding buffer. Bound proteins were resolved on denaturing 8% SDS/PAGE gel for the immunoblotting with anti-HA antibody. CLU cDNA detected in the yeast two hybrid assay, which corresponds to the CLU coding sequence beginning at position 212 from the ATG site, was used to produce a protein band of approximately 40 KDa. (B) Gelatin (20 μg) and CLU (2 μg) were mixed and incubated in the presence or absence of active MMP-9, followed by denaturing 12% SDS/PAGE gel electrophoresis, which then was stained with Coomasie blue. Two subunits of CLU are designated as α and β.
The GST tagged MMP-9 constructs were generated by ligation of the pGB-MMP-9 EcoR I/Sal I inserts into the pGEX 4T vector (Amersham, Piscataway, N.J.). The pGEX 4T MMP-9 constructs were transformed into the E. Coli strain BL21(DE3) (Novagen, Gibbstown, N.J.) for expression. […]
To further confirm the interaction between MMP-9 and CLU that was detected by yeast two hybrid screening, we performed GST pull down assay using recombinant GST-tagged MMP-9 fusion protein. […]

T1 sequence (P33434 110-662): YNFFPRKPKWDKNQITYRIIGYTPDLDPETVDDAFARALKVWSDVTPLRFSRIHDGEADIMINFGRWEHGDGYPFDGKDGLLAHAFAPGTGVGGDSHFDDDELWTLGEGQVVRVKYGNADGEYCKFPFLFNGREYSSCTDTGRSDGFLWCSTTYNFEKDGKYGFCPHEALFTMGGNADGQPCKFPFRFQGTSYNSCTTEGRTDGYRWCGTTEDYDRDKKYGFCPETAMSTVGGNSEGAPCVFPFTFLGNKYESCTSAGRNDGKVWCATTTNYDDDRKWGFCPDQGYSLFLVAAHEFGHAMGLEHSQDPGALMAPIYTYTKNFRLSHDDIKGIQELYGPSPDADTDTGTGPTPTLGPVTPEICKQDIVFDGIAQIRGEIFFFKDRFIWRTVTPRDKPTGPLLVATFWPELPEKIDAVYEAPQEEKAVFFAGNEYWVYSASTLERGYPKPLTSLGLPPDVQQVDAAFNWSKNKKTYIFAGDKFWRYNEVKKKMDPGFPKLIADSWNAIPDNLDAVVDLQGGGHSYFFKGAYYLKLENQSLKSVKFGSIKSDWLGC
Chain of GST-MMP-9 (P41245 109-730 limits assumed): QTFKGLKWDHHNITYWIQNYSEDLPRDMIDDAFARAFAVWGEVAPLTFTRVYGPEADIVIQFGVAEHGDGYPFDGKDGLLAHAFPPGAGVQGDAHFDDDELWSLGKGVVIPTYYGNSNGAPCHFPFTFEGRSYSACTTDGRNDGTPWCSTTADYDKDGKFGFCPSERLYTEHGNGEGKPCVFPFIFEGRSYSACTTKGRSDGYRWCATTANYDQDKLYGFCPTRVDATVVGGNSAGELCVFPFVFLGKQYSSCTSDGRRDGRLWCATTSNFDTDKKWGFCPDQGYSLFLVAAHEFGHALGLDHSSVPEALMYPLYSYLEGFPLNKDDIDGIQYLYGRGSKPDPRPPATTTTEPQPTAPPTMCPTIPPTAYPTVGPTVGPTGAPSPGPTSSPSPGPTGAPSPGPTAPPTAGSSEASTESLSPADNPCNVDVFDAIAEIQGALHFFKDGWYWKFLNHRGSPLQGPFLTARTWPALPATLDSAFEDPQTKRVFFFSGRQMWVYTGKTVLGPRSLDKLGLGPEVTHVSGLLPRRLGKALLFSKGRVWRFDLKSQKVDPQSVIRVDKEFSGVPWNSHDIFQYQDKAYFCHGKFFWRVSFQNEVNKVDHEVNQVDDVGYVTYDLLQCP

B1: CLU: secreted disulfide-linked heterodimeric glycoprotein (70-80 KD); assays used recombinant mouse CLU with C-terminal (His)6 (protein, UniProt Q06890 22-448, looked up)
Clusterin: EQEVSDNELQELSTQGSRYINKEIQNAVQGVKHIKTLIEKTNAERKSLLNSLEEAKKKKEDALEDTRDSEMKLKAFPEVCNETMMALWEECKPCLKHTCMKFYARVCRSGSGLVGQQLEEFLNQSSPFYFWMNGDRIDSLLESDRQQSQVLDAMQDSFARASGIIDTLFQDRFFARELHDPHYFSPIGFPHKRPHFLYPKSRLVRSLMSPSHYGPPSFHNMFQPFFEMIHQAQQAMDVQLHSPAFQFPDVDFLREGEDDRTVCKEIRRNSTGCLKMKGQCEKCQEILSVDCSTNNPAQANLRQELNDSLQVAERLTEQYKELLQSFQSKMLNTSSLLEQLNDQFNWVSQLANLTQGEDKYYLRVSTVTTHSSDSEVPSRVTEVVVKLFDSDPITVVLPEEVSKDNPKFMDTVAEKALQEYRRKSRAE
modifications: C-terminal His6 tag
- binding of MMP-2 to His-tagged CLU (MMP-2): Though weaker than MMP-9, MMP-2 also had an affinity for CLU
- interaction of HA-tagged CLU with GST-MMP-9 (GST-MMP-9): still interacted even in the presence of the bacterial lysate
